Target: wild type human VEGFR-3 (Flt4), long form (human) (UniProt P35916)
Experiment: cell-based or functional assay

UniProt P35916, sequence (P35916 25-1363 limits assumed): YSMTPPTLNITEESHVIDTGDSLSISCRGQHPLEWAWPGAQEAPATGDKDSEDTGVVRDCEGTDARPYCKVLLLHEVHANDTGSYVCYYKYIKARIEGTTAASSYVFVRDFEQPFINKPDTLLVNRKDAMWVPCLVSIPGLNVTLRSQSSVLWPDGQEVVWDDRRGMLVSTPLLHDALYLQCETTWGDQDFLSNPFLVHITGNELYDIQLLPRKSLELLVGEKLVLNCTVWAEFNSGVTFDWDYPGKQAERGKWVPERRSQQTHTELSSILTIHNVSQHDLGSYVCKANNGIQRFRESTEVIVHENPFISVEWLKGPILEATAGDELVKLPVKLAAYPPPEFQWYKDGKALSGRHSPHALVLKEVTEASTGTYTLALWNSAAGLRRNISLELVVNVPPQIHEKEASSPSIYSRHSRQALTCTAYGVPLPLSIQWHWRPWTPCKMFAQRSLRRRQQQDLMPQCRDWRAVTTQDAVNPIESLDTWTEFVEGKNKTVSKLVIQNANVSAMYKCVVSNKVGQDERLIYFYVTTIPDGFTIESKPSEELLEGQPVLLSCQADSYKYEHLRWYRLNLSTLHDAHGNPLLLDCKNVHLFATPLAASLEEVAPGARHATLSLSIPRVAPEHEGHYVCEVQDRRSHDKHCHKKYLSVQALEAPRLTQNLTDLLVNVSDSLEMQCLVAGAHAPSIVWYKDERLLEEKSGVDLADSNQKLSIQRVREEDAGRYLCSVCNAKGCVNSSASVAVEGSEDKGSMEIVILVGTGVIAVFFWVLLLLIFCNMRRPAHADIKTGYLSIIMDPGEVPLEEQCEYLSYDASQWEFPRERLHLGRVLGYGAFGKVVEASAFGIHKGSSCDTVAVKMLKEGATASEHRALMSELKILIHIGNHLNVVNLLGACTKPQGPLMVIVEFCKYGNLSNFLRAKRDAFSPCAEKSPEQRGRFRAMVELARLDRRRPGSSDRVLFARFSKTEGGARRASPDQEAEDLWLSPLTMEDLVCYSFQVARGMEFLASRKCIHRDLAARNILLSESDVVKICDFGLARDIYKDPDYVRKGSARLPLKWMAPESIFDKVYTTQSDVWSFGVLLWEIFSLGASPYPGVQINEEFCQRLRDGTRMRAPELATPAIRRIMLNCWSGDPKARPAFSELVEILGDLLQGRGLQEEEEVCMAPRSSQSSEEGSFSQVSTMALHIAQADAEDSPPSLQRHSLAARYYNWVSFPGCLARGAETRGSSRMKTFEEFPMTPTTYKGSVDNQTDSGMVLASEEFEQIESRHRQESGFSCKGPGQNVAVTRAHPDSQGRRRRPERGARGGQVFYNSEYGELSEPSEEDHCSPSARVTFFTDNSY

tyrosine phosphorylation of VEGFR-3 (immunoprecipitation and anti-phosphotyrosine Western blot), 293T cells co-transfected with 75% of WT and 25% of mutant plasmid: 90 % decrease
tyrosine phosphorylation of VEGFR-3 (immunoprecipitation and anti-phosphotyrosine Western blot), wild type and mutant vectors co-transfected at a 1:1 ratio (% of the wild type alone): 4
Substance: P1114L mutant of human VEGFR-3 (long form) (from UniProt P35916 25-1363) (receptor)

Source: patent publication US20040063656A1
